{"source": "patent US20200108156", "key": {"[1]": {"system": "FITC-NFP1 nanofiber peptide construct, mPEG2000-KKKKKKKLDLKLDLKLDLK(FITC)"}, "[2]": {"system": "DM1-MCC-NFP2 (DM1-loaded NFP2 nanofiber)"}, "[3]": {"system": "Cy5.5-NFP1 nanofiber peptide construct, mPEG2000-KKKKKKKLDLKLDLKLDLK-Cy5.5"}, "[4]": {"system": "FITC-NFP2 nanofiber peptide construct, mPEG2000-KLDLKLDLKLDLK(FITC)"}, "[5]": {"system": "Cy5.5-NFP2 nanofiber peptide construct, mPEG2000 KLDLKLDLKLDLK-Cy5.5"}, "[6]": {"system": "DM1-MCC-NFP1 (DM1-loaded NFP1 nanofiber)"}}}
{"substance": "Cathepsin B (CathB), purified from bovine spleen (EMD Millipore)", "values": [{"measurement": "HPLC of nanofibers after 24 h CathB digestion (enzyme cleavage)", "setting": "[1]", "value": "CathB digested FITC-NFP1 into multiple peptide fragments after 24 hours"}, {"measurement": "drug metabolites after CathB digestion (HPLC, MALDI-TOF)", "setting": "[2]", "value": "For DM1-MCC-NFP2, no drug metabolite was identified during CathB digestion due to its slow release property"}, {"measurement": "fluorescence recovery after CathB activation", "setting": "[3]", "value": "CathB digestion of Cy5.5-NFP1 led to the release of Cy5.5-peptide fragments, thus resulting in the recovery of the fluorescence signal"}, {"measurement": "HPLC of nanofibers after 24 h CathB digestion (enzyme cleavage)", "setting": "[4]", "value": "only one fragment was identified when FITC-NFP2 was subjected to CathB digestion"}, {"measurement": "fluorescence recovery after CathB activation", "setting": "[5]", "value": "the fluorescence of Cy5.5-NFP2 was only slightly increased after exposure to CathB"}, {"measurement": "drug metabolites after CathB digestion (HPLC, MALDI-TOF)", "setting": "[6]", "value": "After CathB digestion, Lys-MCC-DM1 ... was identified in DM1-MCC-NFP1"}]}
